In assay [1] the target is human Nav1.7 (full length) (human) (UniProt Q15858). Put plainly: cell-based or functional assay.
Assay [2] concerns the target T1, hNav1.7-loopB1-C1-D1-llama Fc (human).
T1 construct: whole entry: loops B1, C1, D1 joined by linkers, llama Fc; also called hNav1.7-loopB1-C1-D1-llfc
T1 chain: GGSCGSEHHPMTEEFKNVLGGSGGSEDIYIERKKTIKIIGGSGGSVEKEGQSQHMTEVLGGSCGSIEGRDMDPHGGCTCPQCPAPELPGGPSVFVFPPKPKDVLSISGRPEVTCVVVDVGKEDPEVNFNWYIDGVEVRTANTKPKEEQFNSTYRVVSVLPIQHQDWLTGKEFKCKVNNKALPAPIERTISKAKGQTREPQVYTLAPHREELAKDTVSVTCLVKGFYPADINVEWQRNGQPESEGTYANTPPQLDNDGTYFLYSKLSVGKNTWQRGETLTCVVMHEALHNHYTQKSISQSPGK
The experiment in a line: ELISA, coated loop-B1-C1-D1-llama Fc 20 ng/well, mAb titrated. The protocol:
mAbs originating from the loopA3-llama Fc immunization were assayed for their affinity for hNav1.7-loopA3. Therefore, a Maxisorp plate was coated with 10 ng/well of loopA3-llamaFc chimera and incubated overnight at 4° C. The next day, the plate was blocked with PBS+1% casein for 2 hours at RT. Subsequently a concentration gradient of antibodies was applied (range 0.25 pM-66 nM) for another hour. Antibody binding to loopA3 was detected using a HRP-conjugated anti-human Fc antibody (Abcam, Ab7499) (incubation 1 hour at RT, dilution 1/5000 in PBS+0.1% casein), followed by TMB addition and OD620 nm measurement. EC50 values were determined using GraphPad Prism software. For comparison purposes a known hNav1.7-loopA3 binding monoclonal antibody, UCB_932 (US2011/0135662), was tested.
In a next experiment, the binding affinity of the loop-specific mAbs was determined and compared to reference mAbs as described in US2011/0135662 (for loop A3: UCB_932, for loopB1-C1-D1: UCB_983, for loopC3: UCB_1066; US2011/0135662). Affinities were determined using an ELISA with a loop-coating of 10 ng/well (loopA3-llama Fc), 20 ng/well (loop-B1-C1-D1-llama Fc) or 50 ng/well (loopC3-llama Fc). The remainder of the experimental setup was identical to abovementioned binding ELISAs. Most of the mAbs show pM affinity for the respective hNav1.7 extracellular loop they are binding. […] The EC₅₀ for the reference mAbs could not be determined (nd) from the ELISA data available because the binding was too weak.
In general terms: In an ELISA, binding on a coated surface is turned into a signal by an enzyme label.

Assay [3] addresses T2, hNav1.7-loopA3-llama Fc fusion (human).
T2 construct: also called hNav1.7-loopA3-llFc; loopA3-llamaFc chimera
T2 chain: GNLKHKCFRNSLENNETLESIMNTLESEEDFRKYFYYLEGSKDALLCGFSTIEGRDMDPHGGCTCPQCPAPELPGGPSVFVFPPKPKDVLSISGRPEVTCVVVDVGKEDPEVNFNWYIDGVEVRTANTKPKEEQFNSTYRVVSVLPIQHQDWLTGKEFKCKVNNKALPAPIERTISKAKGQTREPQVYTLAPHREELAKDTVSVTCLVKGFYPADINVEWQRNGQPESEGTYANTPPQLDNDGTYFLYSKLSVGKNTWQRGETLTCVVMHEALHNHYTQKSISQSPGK
Put plainly: binding ELISA on coated loop-llama Fc chimera (20 ng/well), OD620. The method, then:
(§1) For all DNA-immunization derived mAbs the binding affinity for the various hNav1.7-loop-llama Fc chimeras was tested in a binding ELISA. Therefore, a Maxisorp plate (Nunc) was coated with 20 ng/well of hNav1.7-loopA3-llama Fc, hNav1.7-loopB1-C1-D1-llama Fc or hNav1.7-loopC3-llama Fc. Remainder of the ELISA setup is as described above. […] Only at very high concentration minor cross-reactivity is observed for some clones.

For the next assay, the target named is T3, RatB1-C1-D1-llFc (rat).
T3 construct: also called rat Nav1.7 loopB1-C1-D1 llamaFc chimera
T3 chain: T1 chain with R32K, S52T, Q53E, H54Y, T56D, E57Y
Put plainly: binding ELISA; the panel prints no target, by paragraph 562 the coated rat loop B1-C1-D1-llama Fc.

The target of another assay is T4, hNav1.5-B1-C1-D1-llFc (human).
T4 construct: also called Nav1.5 extracellular loop B1-C1-D1 llamaFc chimera
T4 chain: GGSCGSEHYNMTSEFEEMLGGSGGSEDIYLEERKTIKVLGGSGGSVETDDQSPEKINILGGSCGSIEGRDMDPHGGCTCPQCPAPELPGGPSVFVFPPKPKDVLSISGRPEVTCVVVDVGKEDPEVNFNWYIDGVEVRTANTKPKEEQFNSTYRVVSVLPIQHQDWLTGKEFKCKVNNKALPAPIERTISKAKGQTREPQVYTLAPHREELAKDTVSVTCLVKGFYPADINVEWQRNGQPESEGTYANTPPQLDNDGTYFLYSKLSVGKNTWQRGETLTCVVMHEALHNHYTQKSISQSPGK
Put plainly: binding ELISA; the panel prints no target, by paragraph 288 and paragraph 555 the coated hNav1.5 loop B1-C1-D1-llama Fc. The text has this:
The therapeutic potency of an anti-hNav1.7 antibody will highly depend on the lack of binding to other Nay family members. Of particular interest is hNav1.5, which is expressed on cardiac muscle cells. As such, cross-reactive binding of hNav1.7 antibodies to hNav1.5 could lead to heart failure. To assay the specificity of the mAbs derived from DNA immunization for hNav1.7, the corresponding loopA3 and loopB1-C1-D1 sequences of hNav1.5 were cloned as llamaFc chimera and cross-reactivity was determined using a binding ELISA (FIG. 8). All clones, except clone 9A6 and 9H4, show no cross-reactivity to hNav1.5. In addition, cross reactivity for hNav1.2 was tested for the loopA3-binding clones 8A7 and 8B6 using hNav1.2 and hNav1.7 derived monomeric, GST-tagged loopA3 peptides (Abnova, H00006326-Q01 (hNav1.2) and H00006335-Q01 (hNav1.7)). Again, no cross-reactive binding was observed.

In another assay the target is Nt-GCGR-hFc (human) (UniProt P47871). Put plainly: scFv binding ELISA, periplasmic extract on coated Nt-GCGR.
Sequence of Nt-GCGR-hFc (human) (P47871 26-136): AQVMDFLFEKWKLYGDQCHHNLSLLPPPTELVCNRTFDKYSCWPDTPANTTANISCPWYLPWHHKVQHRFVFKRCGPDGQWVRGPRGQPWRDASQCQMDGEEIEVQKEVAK
Assay [4] concerns the target T5, Nt-GCGR-hFc (human, UniProt P47871 26-136).
T5 construct: domain: N-terminal domain; also called Nt-GCGR-Fc; recombinant N-terminal domain of GCGR; not shown: hFc
The experiment in a line: ELISA with a titration of biotin-Nt-GCGR (x axis) against the mAbs, OD620.

Assay [5] deals with T1, hNav1.7-loopB1-C1-D1-llama Fc. The experiment in a line: binding ELISA on coated loop-llama Fc chimera (20 ng/well), OD620. The method, then: as §1
The target of assay [6] is T5, Nt-GCGR-hFc. Put plainly: mAb binding ELISA on coated Nt-GCGR-hFc. The protocol:
Binding to GCGR- and CXCR4-lipoparticles (negative control) (A) and binding to Nt-GCGR-hFc (B). Lipoparticles were coated at 10 U/well. Nt-GCGR was coated at 1 μg/ml. mAbs were allowed to bind to the coated target at 1 μg/ml.

Positions count from the first letter of the chain named.

Eight molecules from patent US20160207996A1 (ARGEN X N V, published 2016) can be followed below.

A word on the EC50: it is the concentration at which the effect is half-maximal.

T5 sequence (P47871 26-136): as above

B1: 9C3 (antibody, V domains shown)
VH: EVQLVQPGAELRNPGTSVKVSCKTSGYYFTSSDIQWVRQAPAQGLEWMGRIDPEDGATKYAPKFQGRVTFTADTFTRTAYVELSNLRSDDTAVYYCMTAGGEYWGKGTLVTVSS
VL: QPVLNQPSALSVSLGQTARITCQGGDFRNYYNNWYQQKPGQAPVLVIYEDSERPSGIPERFSGSSSGDTVILTVSRVQADDEADYYCQSSDSTDNAVFGGGTHLTVL
notes: chimeric llama-human, human IgG1 constant domains
B1: in assay [1], the % inhibition of inward current following P02 voltage protocol, 10 µg/ml is 18.3%; the % inhibition of inward current following P02 voltage protocol, 25 µg/ml came out at 21.6%; the % inhibition of inward current following P02 voltage protocol, 100 µg/ml came to 36.9%. In addition, the EC50 in assay [2] stood at 0.17 nM. In addition, in [3], the binding result is given as “binds”. Besides, in the assay with RatB1-C1-D1-llFc, the binding result was “binds”. The binding result with hNav1.5-B1-C1-D1-llFc is reported as “no binding (tested: about 130 nM)”.

B2: scFv A3 (scFv, part only; not given: GS linker, not shown: small tags and cut ends)
scFv, part: QVQVQESGGGLVQPGGSLRLSCATSGFTFSNYYMSWVRQAPGKGPEWVSSIYSDLSTTYYADSVKGRFTISRDRAKNTLYLQMNSLKSEDTAVYYCARLSTVAGVDYWGKGTLVTVSSSYELTQSPSVSVALRQTAKITCGGNNIGSKSAQWYQQKPGQAPVLVIYADYRRPSGIPERFSGSNSGNTATLTISGAQAEDEADYYCQVWDSSANAAVFGGGTHLTVLG
B2 returned a ScFv binding ELISA signal with Nt-GCGR-hFc (human) of 0.883.

B3: scFv B1 (scFv, part only; not given: GS linker, not shown: small tags and cut ends)
scFv, part: B2 scFv, part
Regarding B3, the ScFv binding ELISA signal with Nt-GCGR-hFc (human) stood at 0.749.

B4: mAb 6A5 (antibody, IgG1, V domains shown)
VH: EVQLQESGGGSVQPGGSLRLSCAASGFTFSANAMTWVRQAPGKGLEWVSAISGTGASTSYADSVKGRFTVSRDNAKNTLYLQVNNLKPEDTAVYRCAKLGGDTWYMEYWAKGTLVTVSS
VL: SYELTQSPSVSVALRQTAKITCGGDNIGSKYVNWYQQKPSQTPVLVIYKDSNRPSGIPERFSGSNSGNTAALTISGAQAEDEADYYCQVWDGSAAVFGGGTHLSVLG
On to B4, for which, in the assay with Nt-GCGR-hFc [4], the binding result is reported as “no binding (tested: about 20 ng/ml biotin-Nt-GCGR)”.

B5: 9G6 (antibody, human IgG1, V domains shown)
VH: EVQLVQPGAELTKPGASVKVSCNTSGYTFTGYYIDWVRQVPGEGLEWMGRIDPEDGDTKYAQKFQGRVTITADTSTTTAYMELSSLRSEDTAVYYCSLGVDYWGQGTQVTVSS
VL: ATMLTQSPGSLSVVPGESASISCKTSQSLVHSDGKTYLYWLLQKPGQSPQRLIYQVSNRDSGVPDRFTGSGSGTDFTLKISGVKAEDAGVYYCAQTTYDPVTFGQGTKVELK
In [1], B5 yielded a % inhibition of inward current following P02 voltage protocol, 10 µg/ml of 11.8%; a % inhibition of inward current following P02 voltage protocol, 25 µg/ml of 22.8%; a % inhibition of inward current following P02 voltage protocol, 100 µg/ml of 37.5%. Further, the binding result in assay [5] was “binds”. In addition, the binding result with hNav1.5-B1-C1-D1-llFc is on record as “no binding (tested: about 130 nM)”.

B6: mAb 6A1 (antibody, IgG1, V domains shown)
VH: EVQLVESGGGLVQPGGSLRLSCAASGFTFSRNAMTWVRQAPGKGLEWVSAISSTGNSITEADSVKGRFTISRDNAKNMLYLQMNSLKPEDTAVYYCAKLGGDTWYMEYWGQGTQVTVSS
VL: SYELTQSPSMSVALRQTAKITCGGNNIGSKSAQWYQQKPGQAPVLVIYADNRRPSGIPERFSGSNSGNTATLTISGAQAEDEADYYCQVWDSSANAVFGRGTHLTVLG
Consider B6, for which the binding result in the assay with Nt-GCGR-hFc [4] is “no binding (tested: about 20 ng/ml biotin-Nt-GCGR)”.

B7: mAb 6D8 (antibody, IgG1, V domains shown)
VH: B6 VH with E1Q, V2L, R31S
VL: SYELTQSPSVSVALRQTAKITCGGNGIGSKIVHWYQQKPGQAPVLVIYADVRRPSEIPERFSGSNSGDTATLTVSGAQAEDEADYYCQVWDSSANAAVFGGGTHLTVLG
For B7, the binding result with Nt-GCGR-hFc [6] is reported as “no binding (tested: 1 µg/ml)”.

B8: mAb 6B7 (antibody, IgG1, V domains shown)
VH: B6 VH with E1Q, V2L, R31S
VL: SSALTQPSAVSVSLGQTARITCQGDNFGSIDPHWYQQKPGQDPVVVIYQYNNRPSGIPERFSGLKSGNTATLIISGAQAEDEADYYCQLWDSRAKAVFGGGTHLTVLG
With B8, in the assay with Nt-GCGR-hFc [6], the binding result is reported as “no binding (tested: 1 µg/ml)”.
